The record followed here is patent EP4538294A1 (Shandong Simcere Biopharmaceutical Co., Ltd., dated 2025).

The EC50 is the concentration that produces a half-maximal response.

In assay [1] the target is T1, human CD3 on Jurkat cells and on activated human PBMC (human, UniProt P07766 23-207; P04234 22-171).
T1 construct: whole, on cells; Endogenous CD3 of the T cell receptor complex on cells
Description: FACS, activated human PBMC. A general note: In flow cytometry, cells or beads pass a laser one at a time.

For assay [2], the target named is T2, monkey CD3 on activated monkey PBMC (monkey).
T2 construct: whole, on cells
T2 sequence (Q95LI5 22-198): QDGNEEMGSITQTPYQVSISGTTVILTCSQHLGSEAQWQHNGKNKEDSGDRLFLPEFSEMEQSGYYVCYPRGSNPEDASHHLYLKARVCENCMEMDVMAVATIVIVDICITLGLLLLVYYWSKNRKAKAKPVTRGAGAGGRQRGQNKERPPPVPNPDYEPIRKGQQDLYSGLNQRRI
Nature of the assay: FACS, activated monkey PBMC.

Assay [3] addresses T3, human BCMA on Flp-inCHO-human BCMA cells (human, UniProt Q02223 1-184).
T3 construct: whole, on cells
T3 sequence (looked up): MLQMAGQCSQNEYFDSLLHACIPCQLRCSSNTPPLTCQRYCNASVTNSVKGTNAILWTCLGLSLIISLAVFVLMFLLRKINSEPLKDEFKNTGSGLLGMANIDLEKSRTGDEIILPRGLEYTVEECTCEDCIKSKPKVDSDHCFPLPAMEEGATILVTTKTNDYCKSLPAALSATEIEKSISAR
Nature of the assay: FACS, Flp-inCHO-human BCMA cells.

The target of assay [4] is T1, human CD3 on Jurkat cells and on …. Nature of the assay: FACS, Jurkat cells.
The target in assay [5] is T4, human GPRC5D on CHOK1-human GPRC5D cells (human, UniProt Q9NZD1 1-345).
T4 construct: whole, on cells
T4 sequence (Q9NZD1 whole entry): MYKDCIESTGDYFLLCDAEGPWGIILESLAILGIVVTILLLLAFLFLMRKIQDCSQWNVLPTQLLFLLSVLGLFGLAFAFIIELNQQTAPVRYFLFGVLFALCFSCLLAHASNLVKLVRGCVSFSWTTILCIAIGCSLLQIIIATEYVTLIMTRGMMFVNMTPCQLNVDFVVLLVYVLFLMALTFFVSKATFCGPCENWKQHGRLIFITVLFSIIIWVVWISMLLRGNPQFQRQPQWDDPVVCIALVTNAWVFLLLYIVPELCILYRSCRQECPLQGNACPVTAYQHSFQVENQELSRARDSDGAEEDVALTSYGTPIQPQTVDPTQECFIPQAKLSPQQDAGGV
Nature of the assay: FACS, CHOK1-human GPRC5D cells.

Where “and” joins values, the source holds several entries; their conditions need not be identical. Identical values can stand only once.

T1 sequence (P07766 23-207, chain 1 of 2): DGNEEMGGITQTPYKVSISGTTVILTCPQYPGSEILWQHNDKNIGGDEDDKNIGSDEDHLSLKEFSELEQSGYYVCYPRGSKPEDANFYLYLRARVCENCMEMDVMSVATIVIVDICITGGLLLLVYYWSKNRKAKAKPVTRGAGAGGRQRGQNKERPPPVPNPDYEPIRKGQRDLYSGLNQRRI
T1 sequence (P04234 22-171, chain 2 of 2): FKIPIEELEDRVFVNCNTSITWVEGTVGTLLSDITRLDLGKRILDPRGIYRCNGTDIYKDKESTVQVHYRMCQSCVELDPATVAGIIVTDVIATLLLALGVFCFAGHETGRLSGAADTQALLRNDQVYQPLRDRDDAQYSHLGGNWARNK

B1: JNJ7564 (bispecific antibody, human IgG4 S228P, kappa, lambda, F234A L235A)
heavy 1: not shown
light 1: DIQMTQSPSSLSASVGDRVTITCKASQNVATHVGWYQQKPGKAPKRLIYSASYRYSGVPSRFSGSGSGTEFTLTISNLQPEDFATYYCQQYNRYPYTFGQGTKLEIKRTVAAPSVFIFPPSDEQLKSGTASVVCLLNNFYPREAKVQWKVDNALQSGNSQESVTEQDSKDSTYSLSSTLTLSKADYEKHKVYACEVTHQGLSSPVTKSFNRGEC
heavy 2: EVQLVESGGGLVQPGGSLRLSCAASGFTFNTYAMNWVRQAPGKGLEWVARIRSKYNNYATYYAASVKGRFTISRDDSKNSLYLQMNSLKTEDTAVYYCARHGNFGNSYVSWFAYWGQGTLVTVSSASTKGPSVFPLAPCSRSTSESTAALGCLVKDYFPEPVTVSWNSGALTSGVHTFPAVLQSSGLYSLSSVVTVPSSSLGTKTYTCNVDHKPSNTKVDKRVESKYGPPCPPCPAPEAAGGPSVFLFPPKPKDTLMISRTPEVTCVVVDVSQEDPEVQFNWYVDGVEVHNAKTKPREEQFNSTYRVVSVLTVLHQDWLNGKEYKCKVSNKGLPSSIEKTISKAKGQPREPQVYTLPPSQEEMTKNQVSLTCLVKGFYPSDIAVEWESNGQPENNYKTTPPVLDSDGSFLLYSKLTVDKSRWQEGNVFSCSVMHEALHNHYTQKSLSLSLGK
light 2: QTVVTQEPSLTVSPGGTVTLTCRSSTGAVTTSNYANWVQQKPGQAPRGLIGGTNKRAPGTPARFSGSLLGGKAALTLSGVQPEDEAEYYCALWYSNLWVFGGGTKLTVLGQPKAAPSVTLFPPSSEELQANKATLVCLISDFYPGAVTVAWKADSSPVKAGVETTTPSKQSNNKYAASSYLSLTPEQWKSHRSYSCQVTHEGSTVEKTVAPTECS
notes: Positive control, GPRC5D x CD3 bispecific of Johnson & Johnson (WO 2019220368 A1), made by reduction and reoxidation of the two parental antibodies
As for B1, the EC50 in assay [1] was 5.21 nM and 7.36 nM; in assay [2], 5.79 nM and 5.72 nM. In addition, the binding result in assay [3] is reported as “no binding (tested: 100 nM highest concentration)”.

B2: Tri-59 (trispecific antibody, V domains shown)
VHH: EVQLVESGGGLVQPGGSLRLSCAASESISSIHIMAWYRQAPGKQRELVAGIRNDGSTVYVDSVKGRFTISRDNAKNSLYLQMNSLRAEDTAVYYCNADQGFGSYSEWERRSRWGQGTTVTVSS
VH 1: EVQLVQSGAEVKKPGSSVKVSCKASGYTFTSYGISWVRQAPGQGLEWMGEIYPRSGNTYYNEKFKGRVTLTADKSTSTAYMELSSLRSEDTAVYYCARGRAYGRNYPMDYWGQGTTVTVSS
VL 1: EIVLTQSPATLSLSPGERATLSCRASQSIGTSIHWYQQKPGQSPRLLIKYASESISGIPARFSGSGSGTDFTLTISSLEPEDFAVYYCQQSNSWPYTFGGGTKVEIK
VH 2: EVQLVESGGGVVQPGRSLRLSCAASGFTFTDYYMSWVRQAPGKGLEWVAMSRNKAKGHTIEYSSSVKGRFTISRDNSKNTLYLQMNSLRAEDTAVYYCARDTYESYDGYFDVWGQGTTVTVSS
VL 2: DIVMTQSPDSLAVSLGERATINCKSSQSLFNSRSRKNYLAWYQQKPGQTPKLLIYWASIRESGVPDRFSGSGSGTDFTLTISSLQAEDVAVYYCKQSYYLYTFGQGTKLEIK
As for B2, the “Maximum mean fluorescence intensity” value in assay [4] stood at 1800; in assay [1], 3510; in assay [2], 5280. Besides, the EC50 in assay [1] was 92.1 nM; in assay [2], 249 nM; in assay [5] it was 0.59 nM; in assay [3], 1.21 nM.

B3: Tri-35 (trispecific antibody, V domains shown)
VHH: EVQLVESGGGLVQPGGSLRLSCSASGFTLDYYMIGWFRQAPGKEREGLSSISPADGSTYYADSVKGRFTISRDSSKNTVYLQMNSLRAEDTAVYYCAAGNEATISWGFGPWEYDYWGQGTMVTVSS
VH 1: EVQLVQSGAEVKKPGSSVKVSCKASGYTFTSYGISWVRQAPGQGLEWMGEIYPRSGNTYYNEKFKGRVTLTADKSTSTAYMELSSLRSEDTAVYYCARGRAYGRNYPMDYWGQGTTVTVSS
VL 1: EIVLTQSPATLSLSPGERATLSCRASQSIGTSIHWYQQKPGQSPRLLIKYASESISGIPARFSGSGSGTDFTLTISSLEPEDFAVYYCQQSNSWPYTFGGGTKVEIK
VH 2: EVQLVESGGGVVQPGRSLRLSCAASGFTFTDYYMSWVRQAPGKGLEWVAMSRNKAKGHTIEYSSSVKGRFTISRDNSKNTLYLQMNSLRAEDTAVYYCARDTYESYDGYFDVWGQGTTVTVSS
VL 2: DIVMTQSPDSLAVSLGERATINCKSSQSLFNSRSRKNYLAWYQQKPGQTPKLLIYWASIRESGVPDRFSGSGSGTDFTLTISSLQAEDVAVYYCKQSYYLYTFGQGTKLEIK
For B3, the “Maximum mean fluorescence intensity” value in assay [4] was found to be 320; in assay [1] it was 2240; in assay [2], 1970. In addition, the EC50 in assay [1] was determined as 81.4 nM; in assay [5] it was 1.78 nM; in assay [3] it was 2.53 nM.

B4: Tri-29 (trispecific antibody, V domains shown)
VHH: EVQLVESGGGLVQPGGSLRLSCSASGFTLDYYMIGWFRQAPGKEREGLSSISPADGSTYYADSVKGRFTISRDSSKNTVYLQMNSLRAEDTAVYYCAAGNEATISWGFGPWEYDYWGQGTMVTVSS
VH 1: EVQLVQSGAEVKKPGSSVKVSCKASGYTFTSYGISWVRQAPGQGLEWMGEIYPRSGNTYYNEKFKGRVTLTADKSTSTAYMELSSLRSEDTAVYYCARGRAYGRNYPMDYWGQGTTVTVSS
VL 1: EIVLTQSPATLSLSPGERATLSCRASQSIGTSIHWYQQKPGQSPRLLIKYASESISGIPARFSGSGSGTDFTLTISSLEPEDFAVYYCQQSNSWPYTFGGGTKVEIK
VH 2: EVQLVESGGGVVQPGRSLRLSCAASGFTFTDYYMSWVRQAPGKGLEWVAMSRNKAKGHTIEYSSSVKGRFTISRDNSKNTLYLQMNSLRAEDTAVYYCARDTYESYDGYFDVWGQGTTVTVSS
VL 2: DIVMTQSPDSLAVSLGERATINCKSSQSLFNSRSRKNYLAWYQQKPGQTPKLLIYWASIRESGVPDRFSGSGSGTDFTLTISSLQAEDVAVYYCKQSYYLYTFGQGTKLEIK
In the case of B4, the “Maximum mean fluorescence intensity” value amounted to 418 in assay [4], 6730 in assay [1] and 5630 in assay [2]. Also, the EC50 in assay [1] was found to be 161 nM; in assay [5], 1.39 nM; in assay [3], 2.27 nM.

B5: REGN5459 (bispecific antibody, human IgG4 S228P, kappa)
heavy 1: EVQLVESGGGLVQPGGSLRLSCAASGFTFSNFWMTWVRQAPGKGLEWVANMNQDGSEKYYVDSVKGRFTISRDNAKSSLYLQMNSLRAEDTAVYYCARDREYCISTSCYDDFDYWGQGTLVTVSSASTKGPSVFPLAPCSRSTSESTAALGCLVKDYFPEPVTVSWNSGALTSGVHTFPAVLQSSGLYSLSSVVTVPSSSLGTKTYTCNVDHKPSNTKVDKRVESKYGPPCPPCPAPPVAGPSVFLFPPKPKDTLMISRTPEVTCVVVDVSQEDPEVQFNWYVDGVEVHNAKTKPREEQFNSTYRVVSVLTVLHQDWLNGKEYKCKVSNKGLPSSIEKTISKAKGQPREPQVYTLPPSQEEMTKNQVSLTCLVKGFYPSDIAVEWESNGQPENNYKTTPPVLDSDGSFFLYSRLTVDKSRWQEGNVFSCSVMHEALHNHYTQKSLSLSLGK
heavy 2: EVQLVESGGGLVQPGRSLRLSCAASGFTFDDYSMHWVRQAPGKGLEWVSGISWNSGSIGYADSVKGRFTISRDNAKNSLYLQMNSLRAEDTALYYCAKYGSGYGKFYYYGMDVWGQGTTVTVSSASTKGPSVFPLAPCSRSTSESTAALGCLVKDYFPEPVTVSWNSGALTSGVHTFPAVLQSSGLYSLSSVVTVPSSSLGTKTYTCNVDHKPSNTKVDKRVESKYGPPCPPCPAPPVAGPSVFLFPPKPKDTLMISRTPEVTCVVVDVSQEDPEVQFNWYVDGVEVHNAKTKPREEQFNSTYRVVSVLTVLHQDWLNGKEYKCKVSNKGLPSSIEKTISKAKGQPREPQVYTLPPSQEEMTKNQVSLTCLVKGFYPSDIAVEWESNGQPENNYKTTPPVLDSDGSFFLYSRLTVDKSRWQEGNVFSCSVMHEALHNRFTQKSLSLSLGK
light: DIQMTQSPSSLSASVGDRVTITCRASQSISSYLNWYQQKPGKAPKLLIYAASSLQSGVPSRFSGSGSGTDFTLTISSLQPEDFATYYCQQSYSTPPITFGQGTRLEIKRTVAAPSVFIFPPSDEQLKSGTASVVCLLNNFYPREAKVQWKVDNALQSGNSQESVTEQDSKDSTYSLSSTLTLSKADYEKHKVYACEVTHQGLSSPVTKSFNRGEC
notes: Positive control, BCMA x CD3 bispecific of Regeneron (WO 2020018820 A1), made in Expi293F; Fc with mutations that prevent homodimerization; also called RGEN5459
With B5, the EC50 in assay [4] was 74.7 nM and 49.7 nM and 66.8 nM and 101 nM; in assay [1], 223 nM and 221 nM; in assay [2], 161 nM. For the same molecule, the binding result in assay [5] is reported as “no binding (tested: 100 nM highest concentration)”.
